Experimental data from publication PMC10902354, “Deficiency in PHD2-mediated hydroxylation of HIF2α underlies Pacak-Zhuang syndrome” (Communications Biology, 2024).
One block for each molecule: values may come before it. Peptide text beside a SMILES is read from it.

What was measured:
[1] = biological target: T1, PHD2 (prolyl-hydroxylase domain, residues 181–426) (Homo sapiens, UniProt Q9GZT9); test: Microscale thermophoresis (MST) binding of HIFα-CODD peptides to the catalytic domain of PHD2; settings: MST; for PHD2 affinity / Kd compared with another peptide (in words): with NOG; for Kd (MST-determined PHD2/HIFα-CODD complex dissociation constant): 25 nM Alexa 647-labeled PHD2, Tris–HCl with NOG (1 mM NOG, 10 µM FeSO4, 5 mg/ml BSA in 2x MST Buffer pH 7.5), peptide in Tris pH 8.0, room temperature, 10 min incubation, 1:1 Kd model, triplicate measurements, highest concentration omitted for Y532H and P531A (aggregation); for Kd (Fit Results, Fit Model Kd): target WT-PHD2(181-426), TargetConcentration 2.5e-8, ligand HIF2a-CODD peptide, MST-Power Medium, Excitation-Power 20 Nano - RED, hot region 19 to 20, unit of Kd not printed (doses of the same sheet are in M), Fig. 1c source data; for Kd relative to WT HIF2α-CODD: fold of the HIF2α WT Kd
T1 construct: encodes for His6-PHD2 (prolyl-hydroxylase domain, residues 181–426); His6 (N, cleaved yes); made in house; host or cells: E. coli BL21(DE3)
T1 sequence (Q9GZT9 181-426): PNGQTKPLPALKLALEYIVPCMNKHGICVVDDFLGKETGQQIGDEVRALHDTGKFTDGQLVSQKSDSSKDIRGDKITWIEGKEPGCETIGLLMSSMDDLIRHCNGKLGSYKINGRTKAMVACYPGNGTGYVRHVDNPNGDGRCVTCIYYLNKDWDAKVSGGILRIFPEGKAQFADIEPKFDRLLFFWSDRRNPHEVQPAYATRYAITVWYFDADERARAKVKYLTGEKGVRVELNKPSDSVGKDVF
Experimental: To determine if there is a direct effect of HIF2α mutations on PHD2 binding, we devised a quantitative method for determining the dissociation constant (Kd) of the HIF2α-CODD peptides and the catalytic domain of PHD2 using microscale thermophoresis (MST)[13],[14] in the presence of the PHD inhibitor n-oxalylglycine (NOG) to inhibit reaction turnover.
PHD2 was purified via a previously described but modified procedure[4],[30]. […] Cells were grown to an OD600 of 0.8 at 37 °C and expression of His6-PHD2 was induced with a final concentration of 0.5 mM IPTG. Cells were grown for an additional 3 h post-induction at 37 °C and harvested via centrifugation. Cell pellets were either used immediately for purification or stored at −80 °C for later use. Cell pellets were resuspended in Lysis Buffer (50 mM Tris–HCl pH 7.9, 500 mM NaCl, 5 mM Imidazole) containing 1x SigmaFast protease inhibitor cocktail (Sigma-Aldrich) and lysed with 3 passes through an Emulsiflex-C3 cell disruptor (Avestin) at 20-30 kPSI. […] Clarified lysates were applied to a 2 ml Ni-NTA (Thermo Scientific) column pre-equilibrated with Lysis Buffer. The beads were washed with 10 ml Lysis buffer and 2 × 30 ml of Wash Buffer (50 mM Tris–HCl pH 7.9, 500 mM NaCl, 30 mM Imidazole). His6-PHD2 was eluted by applying 10 ml Elution Buffer (50 mM Tris–HCl pH 7.9, 500 mM NaCl, 1 M Imidazole) to the column. Ni-NTA purified His6-PHD2 was dialyzed using a 10 kDa cut-off dialysis membrane against 2 L of Dialysis Buffer (50 mM Tris–HCl pH 7.5) for 4 h at 4 °C. […] Dialysis and thrombin cleavage were allowed to continue overnight at 4 °C. Thrombin-cleaved PHD2 was collected and applied to a 2 ml Ni-NTA column pre-equilibrated with Dialysis Buffer to remove uncleaved protein and cleaved His6 tags. The flow-through was collected and the beads were washed with 10 ml of Dialysis Buffer supplemented with 5 mM imidazole. The 5 mM imidazole eluate was pooled with the flow through and concentrated with an Amicon 10 kDa cut-off centrifugal concentrator (Millipore) to a volume of ~600 µl. The concentrated PHD2 was then applied to a Superdex 75 Increase 10/300 GL column (Cytiva) equilibrated with Dialysis Buffer or Labeling Buffer (50 mM HEPES pH 7.5, 150 mM NaCl) depending on the intended use of the sample. Eluted fractions containing PHD2 were collected and pooled. For the His6-PHD2 used in the indirect hydroxylation assay, no thrombin was added during dialysis steps therefore the His6-tag was not removed and the subsequent passage of the sample through Ni-NTA beads to remove His6-tags was not performed. Otherwise, the purification protocol for His6-PHD2 is the same as thrombin-cleaved PHD2. All purification steps were analyzed by SDS–PAGE and the Superdex 75 Increase chromatogram was used to assess size and aggregation, see Supplementary Fig. 5 for a representative purification assessment.
Labeling was conducted at room temperature for 1 h in the dark. Excess dye was then removed first by the passage of the sample through a PD-10 desalting column containing Sephadex G-25 resin (Cytiva) equilibrated with Dialysis Buffer and then any remaining excess dye was removed via repeated 10-fold dilution in Dialysis Buffer and subsequent concentration in an Amicon 10 kDa cut off centrifugal filter until the dye could no longer be detected in the concentrator flow through by Absorbance at 650 nm.
MST measurements were taken using a Monolith NT.115 (Nanotemper Technologies) at room temperature using standard MST capillaries (Nanotemper Technologies). […] For each HIFα-CODD peptide, ~1 mg dry weight of peptide was dissolved in 200 µl of 50 mM Tris–HCl pH 8.0 and concentrations were measured using UV absorbance at 280 nm for most peptides and BCA assay (Thermo Scientific) for Y532C and Y532H peptides using known concentrations of the WT HIF2α-CODD peptide to create a standard curve.

[2] = biological target: T2, Alexa 647 labeled PHD2 (catalytic / prolyl-hydroxylase domain, residues 181-426) (human, UniProt Q9GZT9 181-426, Alexa Fluor 647 N-hydroxysuccinimide ester dye, 1-2 dye molecules per protein molecule); test: MST; 25 nM Alexa 647 labeled PHD2, unlabeled peptide in 16 two-fold dilutions; room temperature; MST Buffer 50 mM Tris-HCl pH 7.5, 1 mM NOG, 10 µM FeSO4, 5 mg/ml BSA mixed 1:1 with peptide in 50 mM Tris-HCl pH 8.0; 1:1 Kd model; triplicate; settings: both partners purified
T2 construct: PHD2, prolyl-hydroxylase domain (catalytic domain), residues 181-426, from pET-46-HIS6-PHD2; Same construct as m2, dye-labeled for MST; also called PHD2-647; source: E. coli BL21(DE3), purified (Ni-NTA, thrombin cleavage, Superdex 75), labeled with Alexa Fluor 647 NHS ester
T2 sequence (Q9GZT9 181-426): as above

Kd (MST-determined PHD2/HIFα-CODD complex dissociation constant) [1]: No binding
Molecule: HIF2α P531L: Class 1 mutant HIF2α-CODD peptide (Ac-ELDLETLALYIPMDGEDFQL-NH2)

Kd (MST-determined PHD2/HIFα-CODD complex dissociation constant) [1]: No binding | Kd (Fit Results, Fit Model Kd) [1]: 0.01043
Molecule: HIF2α L529P: Class 1 mutant HIF2α-CODD peptide (Ac-ELDLETPAPYIPMDGEDFQL-NH2)

Kd relative to WT HIF2α-CODD [1]: 2.4 × WT
Molecule: CC[C@H](C)[C@H](NC(=O)[C@H](Cc1ccc(O)cc1)NC(=O)[C@@H]1CCCN1C(=O)[C@H](C)NC(=O)[C@H](CC(C)C)NC(=O)[C@@H](NC(=O)[C@H](CCC(=O)O)NC(=O)[C@H](CC(C)C)NC(=O)[C@H](CC(=O)O)NC(=O)[C@H](CC(C)C)NC(=O)[C@H](CCC(=O)O)NC(C)=O)[C@@H](C)O)C(=O)N1CCC[C@H]1C(=O)N[C@@H](CCSC)C(=O)N[C@@H](CC(=O)O)C(=O)N[C@@H](Cc1c[nH]c2ccccc12)C(=O)N[C@@H](CCC(=O)O)C(=O)N[C@@H](CC(=O)O)C(=O)N[C@@H](Cc1ccccc1)C(=O)N[C@@H](CCC(N)=O)C(=O)N[C@@H](CC(C)C)C(N)=O [HIF2α G537W] (Ac-ELDLETLAPYIPMDWEDFQL-NH2)

Kd [2]: 345 ± 247 µM
B3: HIF2α-CODD Y532C peptide (peptide, UniProt Q99814 523-542, looked up)
peptide: Ac-ELDLETLAPCIPMDGEDFQL-NH2
notes: HIF2α (EPAS1) CODD peptide, human, as m3 with the disease mutation Y532C; also called HIF2α Y532C; source: synthetic peptide (Genscript, ≥95% purity)

More lines, now with the values behind:

Molecule: HIF2α Y532C: Class 1 mutant HIF2α-CODD peptide (Ac-ELDLETLAPCIPMDGEDFQL-NH2)
PHD2 affinity / Kd compared with another peptide (in words) [1]: strongly detrimental to the interaction of PHD2 with HIF2α-CODD

Molecule: HIF2α P531S: Class 1 mutant HIF2α-CODD peptide (Ac-ELDLETLASYIPMDGEDFQL-NH2)
Kd (MST-determined PHD2/HIFα-CODD complex dissociation constant) [1]: No binding | Kd (Fit Results, Fit Model Kd) [1]: 0.01316

Molecule: CC[C@H](C)[C@H](NC(=O)[C@H](Cc1ccc(O)cc1)NC(=O)[C@@H]1CCCN1C(=O)[C@@H](NC(=O)[C@H](CC(C)C)NC(=O)[C@@H](NC(=O)[C@H](CCC(=O)O)NC(=O)[C@H](CC(C)C)NC(=O)[C@H](CC(=O)O)NC(=O)[C@H](CC(C)C)NC(=O)[C@H](CCC(=O)O)NC(C)=O)[C@@H](C)O)[C@@H](C)O)C(=O)N1CCC[C@H]1C(=O)N[C@@H](CCSC)C(=O)N[C@@H](CC(=O)O)C(=O)NCC(=O)N[C@@H](CCC(=O)O)C(=O)N[C@@H](CC(=O)O)C(=O)N[C@@H](Cc1ccccc1)C(=O)N[C@@H](CCC(N)=O)C(=O)N[C@@H](CC(C)C)C(N)=O [HIF2α A530T]
PHD2 affinity / Kd compared with another peptide (in words) [1]: significant effect on PHD2 binding affinity

Molecule: CC[C@H](C)[C@H](NC(=O)[C@H](Cc1c[nH]cn1)NC(=O)[C@@H]1CCCN1C(=O)[C@H](C)NC(=O)[C@H](CC(C)C)NC(=O)[C@@H](NC(=O)[C@H](CCC(=O)O)NC(=O)[C@H](CC(C)C)NC(=O)[C@H](CC(=O)O)NC(=O)[C@H](CC(C)C)NC(=O)[C@H](CCC(=O)O)NC(C)=O)[C@@H](C)O)C(=O)N1CCC[C@H]1C(=O)N[C@@H](CCSC)C(=O)N[C@@H](CC(=O)O)C(=O)NCC(=O)N[C@@H](CCC(=O)O)C(=O)N[C@@H](CC(=O)O)C(=O)N[C@@H](Cc1ccccc1)C(=O)N[C@@H](CCC(N)=O)C(=O)N[C@@H](CC(C)C)C(N)=O [HIF2α Y532H] (Ac-ELDLETLAPHIPMDGEDFQL-NH2)
PHD2 affinity / Kd compared with another peptide (in words) [1]: near wild-type affinity | Kd relative to WT HIF2α-CODD [1]: 1.2 × WT

Molecule: CC[C@H](C)[C@H](NC(=O)[C@H](Cc1ccc(O)cc1)NC(=O)[C@@H]1CCCN1C(=O)[C@H](C)NC(=O)[C@H](CC(C)C)NC(=O)[C@H](CCSC)NC(=O)[C@H](CCC(=O)O)NC(=O)[C@H](CC(C)C)NC(=O)[C@H](CC(=O)O)NC(=O)[C@H](CC(C)C)NC(=O)[C@H](CCC(=O)O)NC(C)=O)C(=O)N1CCC[C@H]1C(=O)N[C@@H](CCSC)C(=O)N[C@@H](CC(=O)O)C(=O)NCC(=O)N[C@@H](CCC(=O)O)C(=O)N[C@@H](CC(=O)O)C(=O)N[C@@H](Cc1ccccc1)C(=O)N[C@@H](CCC(N)=O)C(=O)N[C@@H](CC(C)C)C(N)=O [HIF2α T528M] (Ac-ELDLEMLAPYIPMDGEDFQL-NH2)
PHD2 affinity / Kd compared with another peptide (in words) [1]: intermediate affinity

B1: HIF2α-CODD A530T peptide (peptide, UniProt Q99814 523-542, looked up)
peptide: Ac-ELDLETLTPYIPMDGEDFQL-NH2
notes: HIF2α (EPAS1) CODD peptide, human, as m3 with the disease mutation A530T (Class 1); also called HIF2α A530T; source: synthetic peptide (Genscript, ≥95% purity)
Kd [2]: 627 ± 126 µM

B2: HIF2α-CODD Y532H peptide (peptide, UniProt Q99814 523-542, looked up)
peptide: Ac-ELDLETLAPHIPMDGEDFQL-NH2
notes: HIF2α (EPAS1) CODD peptide, human, as m3 with the disease mutation Y532H (Class 2); also called HIF2α Y532H; source: synthetic peptide (Genscript, ≥95% purity)
Kd [2]: 41 ± 5 µM
